# Assay results taken from patent publication US20160159922A1.
# Molecular target: citrullinated human fibrinogen peptide, residues 36-52 (cit-fib) (human)
# Test: reactivity test against citrullinated peptide; arbitrary units relative to a serum pool standard; antibody at 5 ug/ml
binder,measurement,value
"ACPA11 (antibody, V domains shown) VH: HLQLQESGPKLVKTSETLSLNCSVSRESIVRNDKFWGWVRQPPGKGLEWIGSINPLGRTFYTTSLKDRIRISFDTSEGYFSLSVASVTAADTAIYYCATDGEGVLFDEWSQGTLVTVSS VL: QPVMTQPPSACGTPGQRVTIPCSGNTSNIGYNIVNWYQQVPGTAPKLLIYDNDKRPSGVPDRFSASKSVTSASLVISGLQSADEADYYCAVWDDDLSGVVIGEGTKLTVL",reactivity (Au/ml at 5 ug/ml),21 Au/ml
